# Reference: PMC3936483 (The Biochemical journal, 2008)
# “And” between values parts separate entries of the source, which are not always exact repeats. Identical values can stand only once. Like-named read-outs stand apart in the source and are kept apart here.
# Assays:
# SEC [1] = target: the molecule itself; assay: SEC
# SEC [2] = target: the molecule itself; assay: SEC; remark: listed apart in the source
Protein,stoichiometry N (SEC [1]),stoichiometry N (SEC [2])
"adiponectin, C-terminal FLAG- or HA-tagged, full length (natural protein, UniProt Q60994 18-247, looked up) EDDVTTTEELAPALVPPPKGTCAGWMAGIPGHPGHNGTPGRDGRDGTPGEKGEKGDAGLLGPKGETGDVGMTGAEGPRGFPGTPGRKGEPGEAAYVYRSAFSVGLETRVTVPNVPIRFTKIFYNQQNHYDGSTGKFYCNIPGLYYFSYHITVYMKDVKVSLFKKDKAVLFTYDQYQEKNVDQASGSVLLHLEVGDQVWLQVYGDGDHNGLYADNVNDSTFTGFLLYHDTN",3 and 6,
"CTRP6 (C1q/TNF-related protein 6), C-terminal FLAG- or HA-tagged, full length (natural protein, UniProt Q6IR41 25-264, looked up, N-linked glycans (sites not given)) VPTEETTFGESVASHLPKGCRRCCDPEDLMSSDDTVQAPVSPYVLPEVRPYINITILKGDKGDRGPTGTPGKPGKNGTRGDRGSQGVKGDKGQAGSPGSSCQTHYSAFSVGRKTGLHSSENFLSLLFDRVFVNTDGHFDMATGSFVAPLRGLYFFSLNVHSWNYKETYVHIVHNEQAVVILYAQPSERSIMQSQSVMLPLVPGDRVWVRLFKRERENGIYSDDVDTYITFSGHLIKAEDN",~6 and 3,
"CTRP10 (C1q/TNF-related protein 10), C-terminal FLAG- or HA-tagged, full length (natural protein, mouse, UniProt Q8CFR0 22-287, looked up, carbohydrate moieties (type and sites not determined; none N-linked)) HYEMLGTCRMICDPYSVAPAGGPAGAKAPPPGPSTAALEVMQDLSANPPPPFIQGPKGDPGRPGKPGPRGPPGEPGPPGPRGPPGEKGDSGRPGLPGLQLTTSAAGGVGVVSGGTGGGGDTEGEVTSALSAAFSGPKIAFYVGLKSPHEGYEVLKFDDVVTNLGNHYDPTTGKFSCQVRGIYFFTYHILMRGGDGTSMWADLCKNGQVRASAIAQDADQNYDYASNSVVLHLDSGDEVYVKLDGGKAHGGNNNKYSTFSGFLLYPD",3 and ~6,
"CTRP1ΔCys (C73A/C76A/C77A/C141A), C-terminal FLAG-tagged (natural protein, mouse, UniProt Q9QXP7 26-281, looked up) LVPRVQEEQQEWEETEELPSPLDPVTRPEETREKYSPRQGEDLPTSRAYRAADPSTPVYQTIPPPQINITILKGEKGDRGDRGLQGKYGKIGSTGPRGHVGPKGQKGSIGAPGNHAKSQYAAFSVGRKKALHSNDYFQPVVFDTEFVNLYKHFNMFTGKFYCYVPGIYFFSLNVHTWNQKETYLHIMKNEEEVVILYAQVSDRSIMQSQSLMMELREEDEVWVRLFKGERENAIFSDEFDTYITFSGYLVKPASEP",3,
"CTRP3ΔCys (C39A/C42A/C43A), C-terminal FLAG-tagged (natural protein, UniProt Q9ES30 23-246, looked up) QDEYMESPQAGGLPPDASKAAHGDYGFRGYQGPPGPPGPPGIPGNHGNNGNNGATGHEGAKGEKGDKGDLGPRGERGQHGPKGEKGYPGVPPELQIAFMASLATHFSNQNSGIIFSSVETNIGNFFDVMTGRFGAPVSGVYFFTFSMMKHEDVEEVYVYLMHNGNTVFSMYSYETKGKSDTSSNHAVLKLAKGDEVWLRMGNGALHGDHQRFSTFAGFLLFETK",3,
"CTRP5ΔCys (C28A/C98A), C-terminal FLAG-tagged (natural protein, UniProt Q8K479 16-243, looked up) SPPLDDNKIPSLAPGQPGLPGTPGHHGSQGLPGRDGRDGRDGAPGAPGEKGEGGRPGLPGPRGEPGPRGEAGPMGAIGPAGEASVPPRSAFSAKRSESRVPPPADTPLPFDRVLLNEQGHYDPTTGKFTCQVPGVYYFAVHATVYRASLQFDLVKNGQSIASFFQYFGGWPKPASLSGGAMVRLEPEDQVWVQVGVGDYIGIYASIKTDSTFSGFLVYSDWHSSPVFA",3,
"CTRP6ΔCys (C44A/C47A/C48A/C125A), C-terminal FLAG- or HA-tagged (natural protein, UniProt Q6IR41 25-264, looked up) VPTEETTFGESVASHLPKGARRAADPEDLMSSDDTVQAPVSPYVLPEVRPYINITILKGDKGDRGPTGTPGKPGKNGTRGDRGSQGVKGDKGQAGSPGSSAQTHYSAFSVGRKTGLHSSENFLSLLFDRVFVNTDGHFDMATGSFVAPLRGLYFFSLNVHSWNYKETYVHIVHNEQAVVILYAQPSERSIMQSQSVMLPLVPGDRVWVRLFKRERENGIYSDDVDTYITFSGHLIKAEDN",3,
"CTRP10ΔCys (C29A/C33A), C-terminal FLAG-tagged (natural protein, mouse, UniProt Q8CFR0 22-287, looked up) HYEMLGTARMIADPYSVAPAGGPAGAKAPPPGPSTAALEVMQDLSANPPPPFIQGPKGDPGRPGKPGPRGPPGEPGPPGPRGPPGEKGDSGRPGLPGLQLTTSAAGGVGVVSGGTGGGGDTEGEVTSALSAAFSGPKIAFYVGLKSPHEGYEVLKFDDVVTNLGNHYDPTTGKFSCQVRGIYFFTYHILMRGGDGTSMWADLCKNGQVRASAIAQDADQNYDYASNSVVLHLDSGDEVYVKLDGGKAHGGNNNKYSTFSGFLLYPD",3,
"serum CTRP5 (natural protein, mouse (endogenous in C57BL/6 serum), UniProt Q8K479 16-243, looked up) SPPLDDNKIPSLCPGQPGLPGTPGHHGSQGLPGRDGRDGRDGAPGAPGEKGEGGRPGLPGPRGEPGPRGEAGPMGAIGPAGECSVPPRSAFSAKRSESRVPPPADTPLPFDRVLLNEQGHYDPTTGKFTCQVPGVYYFAVHATVYRASLQFDLVKNGQSIASFFQYFGGWPKPASLSGGAMVRLEPEDQVWVQVGVGDYIGIYASIKTDSTFSGFLVYSDWHSSPVFA",,3
"CTRP1 (C1q/TNF-related protein 1), C-terminal FLAG- or HA-tagged, full length (natural protein, mouse, UniProt Q9QXP7 26-281, looked up, N-linked glycans (site not given)) LVPRVQEEQQEWEETEELPSPLDPVTRPEETREKYSPRQGEDLPTSRCYRCCDPSTPVYQTIPPPQINITILKGEKGDRGDRGLQGKYGKIGSTGPRGHVGPKGQKGSIGAPGNHCKSQYAAFSVGRKKALHSNDYFQPVVFDTEFVNLYKHFNMFTGKFYCYVPGIYFFSLNVHTWNQKETYLHIMKNEEEVVILYAQVSDRSIMQSQSLMMELREEDEVWVRLFKGERENAIFSDEFDTYITFSGYLVKPASEP",3,
"CTRP3 (C1q/TNF-related protein 3), C-terminal FLAG- or HA-tagged, full length (natural protein, UniProt Q9ES30 23-246, looked up, carbohydrate moieties (type and sites not determined; none N-linked)) QDEYMESPQAGGLPPDCSKCCHGDYGFRGYQGPPGPPGPPGIPGNHGNNGNNGATGHEGAKGEKGDKGDLGPRGERGQHGPKGEKGYPGVPPELQIAFMASLATHFSNQNSGIIFSSVETNIGNFFDVMTGRFGAPVSGVYFFTFSMMKHEDVEEVYVYLMHNGNTVFSMYSYETKGKSDTSSNHAVLKLAKGDEVWLRMGNGALHGDHQRFSTFAGFLLFETK",3 and ~6,
"CTRP5 (C1q/TNF-related protein 5), C-terminal FLAG- or HA-tagged, full length (natural protein, UniProt Q8K479 16-243, looked up, carbohydrate moieties (type and sites not determined; none N-linked)) SPPLDDNKIPSLCPGQPGLPGTPGHHGSQGLPGRDGRDGRDGAPGAPGEKGEGGRPGLPGPRGEPGPRGEAGPMGAIGPAGECSVPPRSAFSAKRSESRVPPPADTPLPFDRVLLNEQGHYDPTTGKFTCQVPGVYYFAVHATVYRASLQFDLVKNGQSIASFFQYFGGWPKPASLSGGAMVRLEPEDQVWVQVGVGDYIGIYASIKTDSTFSGFLVYSDWHSSPVFA",3 and ~6,
